Sequences and labels used below:
T1: MRP-8/14 heterodimer (untagged MRP-8 premixed 1:1 with His-tagged MRP-14) (UniProt P05109 1-93; P06702 1-114)
T1 construct: Formed by mixing equal molar amounts for 3 hours with 0.1 mM CaCl2; only MRP-14 has a His tag; not shown: His tag
T1 sequence 1: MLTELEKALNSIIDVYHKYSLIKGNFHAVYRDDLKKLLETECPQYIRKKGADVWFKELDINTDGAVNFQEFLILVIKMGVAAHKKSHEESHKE
T1 sequence 2: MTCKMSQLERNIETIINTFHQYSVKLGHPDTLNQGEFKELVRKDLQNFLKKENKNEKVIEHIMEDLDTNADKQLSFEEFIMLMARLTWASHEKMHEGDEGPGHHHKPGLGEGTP

B1: M13 phage displaying MTP2 (ASSHIHH) (peptide)
peptide: ASSHIHH
notes: Tested as whole phage in the ELISA; not shown: rest of the M13 coat protein fusion of the Ph.D.-7 library (New England Biolabs); not described
B2: M13 phage displaying MTP5 (ACNSHRHGAC) (peptide)
peptide: ACNSHRHGAC
modifications: disulfide 2-10 (inferred); also: displayed on M13 phage coat protein fusion
notes: Tested as whole phage in the ELISA; cyclic library; not shown: rest of the M13 coat protein fusion of the Ph.D.-C7C library (New England Biolabs); not described
B3: M13 phage displaying MTP1 (TTFHHHK) (peptide)
peptide: TTFHHHK
notes: as for B1
B4: M13 phage displaying MTP3 (HNHMADP) (peptide)
peptide: HNHMADP
notes: as for B1
B5: M13 phage displaying MTP9 (ACPTGLHHAC) (peptide)
peptide: ACPTGLHHAC
modifications: disulfide 2-10 (inferred); also: displayed on M13 phage coat protein fusion
notes: as for B2
B6: M13 phage displaying MTP7 (ACYGKPEHHC) (peptide)
peptide: ACYGKPEHHC
modifications: disulfide 2-10 (inferred); also: displayed on M13 phage coat protein fusion
notes: as for B2
B7: M13 phage displaying MTP10 (ACRPKNNHSC) (peptide)
peptide: ACRPKNNHSC
modifications: disulfide 2-10 (inferred); also: displayed on M13 phage coat protein fusion
notes: as for B2
B8: M13 phage displaying MTP6 (ACNSVHQHHC) (peptide)
peptide: ACNSVHQHHC
modifications: disulfide 2-10 (inferred); also: displayed on M13 phage coat protein fusion
notes: as for B2
B9: M13 phage displaying MTP8 (ACPHHPQKHC) (peptide)
peptide: ACPHHPQKHC
modifications: disulfide 2-10 (inferred); also: displayed on M13 phage coat protein fusion
notes: as for B2
B10: His-tagged MRP-14 (other)
chain: T1 sequence 2
notes: Commercial His-tagged protein, captured on a Ni-NTA chip for SPR and coated on plates for the phage ELISA; The position of the His tag is unknown; its order in the chain is arbitrary; not shown: His tag
B11: M13 phage displaying MTP4 (ACKAPAHHHC) (peptide)
peptide: ACKAPAHHHC
modifications: disulfide 2-10 (inferred); also: displayed on M13 phage coat protein fusion
notes: as for B2
B12: Scrambled peptide MDPHAHNGGGS (peptide)
peptide: MDPHAHNGGGS-NH2
notes: Synthetic control peptide with a GGGS spacer; also called scrambled control

The target of experiment [1] is T1, MRP-8/14 heterodimer (untagged MRP-8 …). Description: SPR, MRP-8/14 held on Ni-NTA chip by the His tag of MRP-14, saturation binding curve fit; MRP-8/14 heterodimer on the chip, not MRP-14 alone. (In general: In SPR one partner is held on a chip, and binding of the other changes the refractive index at the surface.)
In experiment [2] the target is B10. The experiment in a line: SPR, His-tagged MRP-14 on Ni-NTA chip, saturation binding curve fit.
For another experiment, the target named is T2, bovine serum albumin (bovine, UniProt P02769 25-607).
T2 construct: Background control in the phage ELISA; also called BSA
The experiment in a line: phage ELISA on BSA-blocked wells, HRP anti-M13 antibody, ABTS, absorbance 410 nm. For orientation: ELISA stands for enzyme-linked immunosorbent assay.

For experiment [3], the target named is T3, TMV-MTP6 (tobacco mosaic virus particle displaying MTP6) (tobacco mosaic virus, UniProt P69687 2-159, alkyne handle (3-ethynylaniline diazonium) on exterior tyrosine residues; about 20% of the coat proteins carry MTP6; C-terminal 3-monomer PEG spacer and azide, joined by CuAAC to an alkyne on …).
T3 construct: Whole virus nanoparticle (with its RNA) with about 400 MTP6 peptides on 2130 coat proteins
Description: SPR, His-tagged MRP-14 on Ni-NTA chip, kinetic curve fit, concentration as MTP6 peptide.

Experiment [4] addresses T3, TMV-MTP6 (tobacco mosaic virus particle …). The experiment in a line: SPR, His-tagged MRP-14 on Ni-NTA chip, kinetic curve fit.
The target in experiment [5] is B10. The experiment in a line: SPR, His-tagged MRP-14 on Ni-NTA chip, peptide injected.

Positions of bridges follow the written chain, without caps; N, C: chain ends. Primed or numbered codes have the meaning given here. No end group written: not given here. PEG3′ = not defined here

What is called Kd is the constant that tells how readily two partners part at equilibrium. High values mean a looser complex, low ones a tighter complex. As usually defined, the koff is a measure of how fast the partners let go of each other. In general, kon refers to a measure of how fast the partners come together. Read a low kon as slow association.

T3 sequence (P69687 2-159): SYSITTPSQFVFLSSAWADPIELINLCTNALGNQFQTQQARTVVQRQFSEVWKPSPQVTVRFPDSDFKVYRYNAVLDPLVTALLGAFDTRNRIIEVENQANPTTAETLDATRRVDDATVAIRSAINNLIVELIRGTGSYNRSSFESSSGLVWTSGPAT
T2 sequence (P02769 25-607 limits assumed): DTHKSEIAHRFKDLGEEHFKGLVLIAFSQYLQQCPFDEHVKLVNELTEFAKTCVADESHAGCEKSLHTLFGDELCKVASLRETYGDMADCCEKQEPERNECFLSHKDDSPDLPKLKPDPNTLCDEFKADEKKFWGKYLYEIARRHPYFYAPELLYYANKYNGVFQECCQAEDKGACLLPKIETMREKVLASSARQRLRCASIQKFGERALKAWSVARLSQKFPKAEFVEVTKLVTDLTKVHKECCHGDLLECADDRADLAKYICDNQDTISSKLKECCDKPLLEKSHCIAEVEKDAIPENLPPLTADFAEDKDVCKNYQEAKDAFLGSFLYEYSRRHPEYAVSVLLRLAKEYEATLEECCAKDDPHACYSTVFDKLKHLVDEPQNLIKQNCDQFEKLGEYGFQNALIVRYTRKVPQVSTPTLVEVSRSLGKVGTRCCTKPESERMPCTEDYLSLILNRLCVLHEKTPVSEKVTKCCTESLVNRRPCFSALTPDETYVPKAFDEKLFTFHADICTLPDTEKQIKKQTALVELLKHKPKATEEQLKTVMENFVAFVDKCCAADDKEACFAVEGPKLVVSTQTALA

For the molecule ACNSVHQHHCGGGS-NH2 (disulfide 2-10 (inferred), lead peptide) [MTP6 synthetic peptide ACNSVHQHHCGGGS], the Kd came out at 57.6 µM in experiment [1] and 39.6 µM with His-tagged MRP-14 [2]. Regarding B1, the binding result with bovine serum albumin is recorded as “no binding (tested: 2.5E+11 pfu/mL)”. The same measure, in the same setting: to B2 belongs “no binding (tested: 2.5E+11 pfu/mL)”. Take B3: the binding result in the experiment with bovine serum albumin is “no binding (tested: 2.5E+11 pfu/mL)”. On to B4, for which the binding result with bovine serum albumin is “no binding (tested: 2.5E+11 pfu/mL)”. In the experiment with His-tagged MRP-14 [2], HNHMADPGGGS-NH2 [MTP3 synthetic peptide HNHMADPGGGS] yielded a Kd of 117 µM. Take B5: the binding result with bovine serum albumin was “no binding (tested: 2.5E+11 pfu/mL)”. With B6, the binding result in the experiment with bovine serum albumin is “no binding (tested: 2.5E+11 pfu/mL)”. Regarding B7, the binding result with bovine serum albumin is given as “no binding (tested: 2.5E+11 pfu/mL)”.

For B8, the binding result in the experiment with bovine serum albumin is “no binding (tested: 2.5E+11 pfu/mL)”. For B9, the binding result with bovine serum albumin is on record as “no binding (tested: 2.5E+11 pfu/mL)”. Molecule B10 gave a Kd in experiment [3] of 0.754 µM. Also, in experiment [4], the koff was found to be 0.000686 s⁻¹ and the kon worked out at 910 M⁻¹ s⁻¹.

ASSHIHHGGGS-NH2 [MTP2 synthetic peptide ASSHIHHGGGS] came in with a Kd with His-tagged MRP-14 [2] of 77.6 µM.

Regarding B11, in the experiment with bovine serum albumin, the binding result was “no binding (tested: 2.5E+11 pfu/mL)”.

As for B12, the binding result in the experiment with His-tagged MRP-14 [5] is recorded as “no binding (tested: 6.25 µM to 100 µM)”. In the experiment with His-tagged MRP-14 [2], ACNSVHQHHCGGGS-{PEG3′-azide} (disulfide 2-10 (inferred)) [MTP6-N3 (azide-functionalized MTP6)] gave a Kd of 55.7 µM.

(Values after patent US20170348438A1 (CASE WESTERN RESERVE UNIVERSITY, published 2017).)
